Legend:
mass photometry = target: the molecule itself; assay: mass photometry
[1] = target: the molecule itself; assay: cryo-electron tomography (mass from the volume of segmented densities)
[2] = target: 2C (MBP removed by TEV in situ, bound to SUVs) (Poliovirus type 1 Mahoney, UniProt P03300 1128-1456); assay: SUV co-flotation, TET fluorescence; conditions: protein: recombinant; tags: His6-MBP cleaved by TEV during assay; chain copies: 6; label: 5' TET on strand 1; blunt

B1: His6-MBP-tagged full-length poliovirus 2C (residues 1-329) (natural protein)
chain: GDSWLKKFTEACNAAKGLEWVSNKISKFIDWLKEKIIPQARDKLEFVTKLRQLEMLENQISTIHQSCPSQEHQEILFNNVRWLSIQSKRFAPLYAVEAKRIQKLEHTINNYIQFKSKHRIEPVCLLVHGSPGTGKSVATNLIARAIAERENTSTYSLPPDPSHFDGYKQQGVVIMDDLNQNPDGADMKLFCQMVSTVEFIPPMASLEEKGILFTSNYVLASTNSSRISPPTVAHSDALARRFAFDMDIQVMNEYSRDGKLNMAMATEMCKNCHQPANFKRCCPLVCGKAIQLMDKSSRVRYSIDQITTMIINERNRRSNIGNCMEALFQ
notes: also called MBP-2C; His6MBP-2C
Mass photometry
  stoichiometry N: ~6

B2: full-length poliovirus 2C, MBP tag cleaved off in the presence of liposomes (membrane-bound 2C) (natural protein)
chain: B1 chain
notes: also called full-length 2C
[1]
  stoichiometry N: ~6

B3: dsRNA 20-mer (oligos 1+2) (dsRNA)
RNA 1: CCUCUAACCACAGUCUGAUC
RNA 2: GAUCAGACUGUGGUUAGAGG
[2]
  binding result: binds
